In paper PMC6242706 (Molecular Cell, 2018):
Changes are numbered by the printed parent chain. Numbers in names are those of the source. Blank lines part the entries; values can stand above or below the binder they belong to.

Tests used:
Mouse UHRF1^ΔMW (3-782) [1] = target: T1, Mouse UHRF1^ΔMW (3-782) (mouse, UniProt Q8VDF2 3-782); experiment: cross-linking
T1 sequence: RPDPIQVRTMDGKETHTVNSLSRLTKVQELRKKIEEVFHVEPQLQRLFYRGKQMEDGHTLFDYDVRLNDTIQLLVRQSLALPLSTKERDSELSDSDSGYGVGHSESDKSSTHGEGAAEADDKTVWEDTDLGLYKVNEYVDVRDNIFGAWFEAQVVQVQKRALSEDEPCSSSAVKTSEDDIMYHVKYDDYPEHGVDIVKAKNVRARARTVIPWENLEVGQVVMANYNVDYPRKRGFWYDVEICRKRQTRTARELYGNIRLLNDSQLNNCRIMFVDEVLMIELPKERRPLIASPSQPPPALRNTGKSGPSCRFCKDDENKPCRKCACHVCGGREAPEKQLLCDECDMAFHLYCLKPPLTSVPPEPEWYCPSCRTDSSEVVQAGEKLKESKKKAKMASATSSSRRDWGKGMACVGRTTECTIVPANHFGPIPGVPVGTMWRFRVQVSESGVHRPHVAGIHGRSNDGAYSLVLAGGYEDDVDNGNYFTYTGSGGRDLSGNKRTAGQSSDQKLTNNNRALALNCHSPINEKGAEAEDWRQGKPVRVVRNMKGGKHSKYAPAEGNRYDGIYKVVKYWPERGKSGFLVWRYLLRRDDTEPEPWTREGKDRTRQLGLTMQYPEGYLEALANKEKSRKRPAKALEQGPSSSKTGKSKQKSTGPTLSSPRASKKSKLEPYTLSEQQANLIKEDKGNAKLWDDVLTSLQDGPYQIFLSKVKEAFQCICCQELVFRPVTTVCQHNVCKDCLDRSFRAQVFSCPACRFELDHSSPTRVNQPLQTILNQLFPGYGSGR

[2] = target: T2, Mouse UHRF1 (1-782), wild-type with the native N terminus (mouse, UniProt Q8VDF2 1-782); experiment: cross-linking
T2 sequence: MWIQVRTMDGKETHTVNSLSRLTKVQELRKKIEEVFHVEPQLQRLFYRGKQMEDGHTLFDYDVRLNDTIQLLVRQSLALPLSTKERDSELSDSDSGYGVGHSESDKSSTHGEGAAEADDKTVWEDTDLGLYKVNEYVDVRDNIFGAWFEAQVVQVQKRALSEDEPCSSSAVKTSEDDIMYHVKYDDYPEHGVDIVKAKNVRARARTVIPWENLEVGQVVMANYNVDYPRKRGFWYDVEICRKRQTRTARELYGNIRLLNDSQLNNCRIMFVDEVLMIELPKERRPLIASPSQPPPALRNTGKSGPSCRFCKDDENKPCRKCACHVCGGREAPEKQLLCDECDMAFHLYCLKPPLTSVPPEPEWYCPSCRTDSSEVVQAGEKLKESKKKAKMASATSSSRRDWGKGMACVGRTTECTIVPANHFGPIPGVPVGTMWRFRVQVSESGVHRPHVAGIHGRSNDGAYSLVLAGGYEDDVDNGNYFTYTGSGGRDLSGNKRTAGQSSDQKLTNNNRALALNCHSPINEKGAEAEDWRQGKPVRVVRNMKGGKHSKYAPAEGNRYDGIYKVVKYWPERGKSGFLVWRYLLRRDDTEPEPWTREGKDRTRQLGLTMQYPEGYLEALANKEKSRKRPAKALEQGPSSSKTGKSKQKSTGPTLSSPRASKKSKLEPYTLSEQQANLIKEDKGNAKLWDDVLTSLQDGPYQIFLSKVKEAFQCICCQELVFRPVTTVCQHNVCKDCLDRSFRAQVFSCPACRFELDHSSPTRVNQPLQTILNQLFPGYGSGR

[3] = target: T3, Mouse UHRF1 (1-782) F46A point mutant (mouse, UniProt Q8VDF2 1-782, F46A); experiment: pull-down
T3 sequence: T2 sequence with F46A

[4] = target: T2, Mouse UHRF1 (1-782), wild-type with the …; experiment: pull-down
Mouse UHRF1^ΔMW (3-782) [5] = target: T1, Mouse UHRF1^ΔMW (3-782); experiment: pull-down

- binding result (Mouse UHRF1^ΔMW (3-782) [1]): binds
- binding result [2]: binds
B1: UbcH5a (human UBE2D1), without GST (enzyme)
chain: not shown

- binding result [3]: binds
- binding result [4]: binds
- binding result (Mouse UHRF1^ΔMW (3-782) [5]): binds
B2: GST-UbcH5a (human UBE2D1, wild-type) (enzyme)
chain: not shown

- binding result [4]: binds
B3: GST-UbcH5a S22R (human UBE2D1 S22R) (enzyme)
chain: not shown
